Laboratory results taken from IntAct's records for PubMed 22327218.

Biological target: anm5_human PRMT5 (UniProt O14744)
Sequence (O14744 whole entry): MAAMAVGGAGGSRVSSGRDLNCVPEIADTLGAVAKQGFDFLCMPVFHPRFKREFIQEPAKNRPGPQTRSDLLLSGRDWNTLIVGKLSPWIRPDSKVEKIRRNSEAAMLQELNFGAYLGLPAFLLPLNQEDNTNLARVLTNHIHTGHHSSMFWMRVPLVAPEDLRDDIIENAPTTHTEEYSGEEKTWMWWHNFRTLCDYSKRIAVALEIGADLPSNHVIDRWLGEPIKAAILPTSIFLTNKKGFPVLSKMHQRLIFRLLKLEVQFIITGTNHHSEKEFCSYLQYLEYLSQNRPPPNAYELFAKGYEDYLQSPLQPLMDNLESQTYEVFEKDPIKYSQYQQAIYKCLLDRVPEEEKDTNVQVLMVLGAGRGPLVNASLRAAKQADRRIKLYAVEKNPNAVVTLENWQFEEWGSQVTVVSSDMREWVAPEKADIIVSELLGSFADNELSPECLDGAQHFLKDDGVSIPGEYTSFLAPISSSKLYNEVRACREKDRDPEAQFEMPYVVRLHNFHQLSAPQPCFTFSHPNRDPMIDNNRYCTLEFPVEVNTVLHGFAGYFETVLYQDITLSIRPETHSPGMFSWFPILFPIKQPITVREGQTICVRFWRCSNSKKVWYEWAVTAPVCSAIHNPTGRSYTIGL

Sequence of Transcription factor E2F1 (Homo sapiens), Q01094 R109K (Q01094 whole entry R109K): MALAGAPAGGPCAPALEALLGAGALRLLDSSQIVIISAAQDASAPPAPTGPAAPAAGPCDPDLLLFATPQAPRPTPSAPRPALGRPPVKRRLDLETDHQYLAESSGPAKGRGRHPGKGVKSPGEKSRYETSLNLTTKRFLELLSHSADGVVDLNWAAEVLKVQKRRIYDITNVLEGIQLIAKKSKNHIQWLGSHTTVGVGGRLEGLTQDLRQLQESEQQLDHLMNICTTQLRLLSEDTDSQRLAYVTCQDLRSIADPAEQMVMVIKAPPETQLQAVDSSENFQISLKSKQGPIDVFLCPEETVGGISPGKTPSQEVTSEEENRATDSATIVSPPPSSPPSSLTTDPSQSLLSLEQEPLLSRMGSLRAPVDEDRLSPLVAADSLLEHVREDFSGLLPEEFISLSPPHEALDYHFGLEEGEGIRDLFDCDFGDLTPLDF
Sequence of Transcription factor E2F1 (Homo sapiens), Q01094 R111K (Q01094 whole entry R111K): as the sequence (Q01094 whole entry R109K) above, with K109R, R111K counted along it
Sequence of Transcription factor E2F1 (Homo sapiens), Q01094 R113K (Q01094 whole entry R113K): as the sequence (Q01094 whole entry R109K) above, with K109R, R113K counted along it

effect of a mutation on the interaction | Substance
disrupting interaction | Transcription factor E2F1 (Homo sapiens), Q01094 R111K
disrupting interaction | Transcription factor E2F1 (Homo sapiens), Q01094 R109K
disrupting interaction | Transcription factor E2F1 (Homo sapiens), Q01094 R113K
